For assay [1], the target named is active human C1s purified from human serum (CompTech, Tyler, TX, catalog number A104) (human) (UniProt P09871). The assay can be described thus: SPR.
Assay [2] has as its target recombinant human ProC1s with Arg437 mutated to glutamine (hProC1s_RQ), C-terminal spacer and 10 histidines (human). The assay is described as follows: SPR. (In general: In SPR one partner is held on a chip, and binding of the other changes the refractive index at the surface.)

For orientation: Kd means the free concentration of one partner at which half of the binding sites on the other are occupied at equilibrium, for simple one-to-one binding.

Sequence of active human C1s purified from human serum (CompTech, Tyler, TX, catalog number A104) (human) (P09871 16-437, chain 1 of 2): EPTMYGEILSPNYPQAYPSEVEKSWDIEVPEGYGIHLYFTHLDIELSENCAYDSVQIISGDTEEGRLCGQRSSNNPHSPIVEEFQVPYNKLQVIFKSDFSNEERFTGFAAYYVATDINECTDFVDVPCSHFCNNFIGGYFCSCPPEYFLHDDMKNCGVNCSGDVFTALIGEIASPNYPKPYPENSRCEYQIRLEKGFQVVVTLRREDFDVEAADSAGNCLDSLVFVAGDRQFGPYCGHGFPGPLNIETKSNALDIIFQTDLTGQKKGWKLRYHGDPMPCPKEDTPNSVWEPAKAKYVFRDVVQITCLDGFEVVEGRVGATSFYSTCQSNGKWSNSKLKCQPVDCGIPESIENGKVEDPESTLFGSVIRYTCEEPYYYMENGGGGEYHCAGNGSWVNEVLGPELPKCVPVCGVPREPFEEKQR
Sequence of active human C1s purified from human serum (CompTech, Tyler, TX, catalog number A104) (human) (P09871 438-688, chain 2 of 2): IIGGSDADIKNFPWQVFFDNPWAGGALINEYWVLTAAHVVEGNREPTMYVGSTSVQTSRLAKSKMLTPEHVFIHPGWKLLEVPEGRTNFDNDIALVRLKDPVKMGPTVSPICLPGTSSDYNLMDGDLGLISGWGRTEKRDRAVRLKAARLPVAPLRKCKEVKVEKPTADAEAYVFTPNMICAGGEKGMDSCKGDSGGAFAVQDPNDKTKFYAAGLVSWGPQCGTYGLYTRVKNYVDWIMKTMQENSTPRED
Sequence of recombinant human ProC1s with Arg437 mutated to glutamine (hProC1s_RQ), C-terminal spacer and 10 histidines (human) (chain, as listed by the source limits assumed, change not shown, form in doubt): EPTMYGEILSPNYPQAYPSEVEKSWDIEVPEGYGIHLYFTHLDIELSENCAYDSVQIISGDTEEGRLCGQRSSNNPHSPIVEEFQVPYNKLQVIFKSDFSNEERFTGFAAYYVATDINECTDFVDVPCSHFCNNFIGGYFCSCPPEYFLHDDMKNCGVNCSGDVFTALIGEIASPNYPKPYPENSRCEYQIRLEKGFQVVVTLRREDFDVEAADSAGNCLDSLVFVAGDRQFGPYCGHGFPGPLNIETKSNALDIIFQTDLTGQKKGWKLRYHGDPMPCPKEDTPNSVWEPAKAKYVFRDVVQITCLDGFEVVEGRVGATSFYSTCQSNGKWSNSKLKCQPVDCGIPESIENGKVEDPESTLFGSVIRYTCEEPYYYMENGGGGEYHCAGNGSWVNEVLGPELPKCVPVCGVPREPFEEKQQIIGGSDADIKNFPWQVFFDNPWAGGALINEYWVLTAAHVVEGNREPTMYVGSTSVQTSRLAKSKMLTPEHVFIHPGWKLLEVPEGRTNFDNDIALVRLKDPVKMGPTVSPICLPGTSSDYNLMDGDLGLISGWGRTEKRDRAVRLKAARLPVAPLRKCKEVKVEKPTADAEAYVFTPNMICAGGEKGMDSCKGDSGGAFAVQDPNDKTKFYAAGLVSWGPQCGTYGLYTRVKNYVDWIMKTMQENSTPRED

For the substance “recombinant sutimlimab/BIVV009/TNT009 (antibody)”, the Kd in assay [1] turned out to be 0.25 nM; in assay [2], 0.4 nM.

These data come from patent US20250188188A1.
